Target: T1, LRP6 G171V (human, UniProt O75197 32-1384, limits assumed)
T1 construct: The parent protein is printed inconsistently (LRP6 in the legend, LRP5 in the text); also called Human HBM G171V mutation; LRP5, G171V
T1 sequence (looked up): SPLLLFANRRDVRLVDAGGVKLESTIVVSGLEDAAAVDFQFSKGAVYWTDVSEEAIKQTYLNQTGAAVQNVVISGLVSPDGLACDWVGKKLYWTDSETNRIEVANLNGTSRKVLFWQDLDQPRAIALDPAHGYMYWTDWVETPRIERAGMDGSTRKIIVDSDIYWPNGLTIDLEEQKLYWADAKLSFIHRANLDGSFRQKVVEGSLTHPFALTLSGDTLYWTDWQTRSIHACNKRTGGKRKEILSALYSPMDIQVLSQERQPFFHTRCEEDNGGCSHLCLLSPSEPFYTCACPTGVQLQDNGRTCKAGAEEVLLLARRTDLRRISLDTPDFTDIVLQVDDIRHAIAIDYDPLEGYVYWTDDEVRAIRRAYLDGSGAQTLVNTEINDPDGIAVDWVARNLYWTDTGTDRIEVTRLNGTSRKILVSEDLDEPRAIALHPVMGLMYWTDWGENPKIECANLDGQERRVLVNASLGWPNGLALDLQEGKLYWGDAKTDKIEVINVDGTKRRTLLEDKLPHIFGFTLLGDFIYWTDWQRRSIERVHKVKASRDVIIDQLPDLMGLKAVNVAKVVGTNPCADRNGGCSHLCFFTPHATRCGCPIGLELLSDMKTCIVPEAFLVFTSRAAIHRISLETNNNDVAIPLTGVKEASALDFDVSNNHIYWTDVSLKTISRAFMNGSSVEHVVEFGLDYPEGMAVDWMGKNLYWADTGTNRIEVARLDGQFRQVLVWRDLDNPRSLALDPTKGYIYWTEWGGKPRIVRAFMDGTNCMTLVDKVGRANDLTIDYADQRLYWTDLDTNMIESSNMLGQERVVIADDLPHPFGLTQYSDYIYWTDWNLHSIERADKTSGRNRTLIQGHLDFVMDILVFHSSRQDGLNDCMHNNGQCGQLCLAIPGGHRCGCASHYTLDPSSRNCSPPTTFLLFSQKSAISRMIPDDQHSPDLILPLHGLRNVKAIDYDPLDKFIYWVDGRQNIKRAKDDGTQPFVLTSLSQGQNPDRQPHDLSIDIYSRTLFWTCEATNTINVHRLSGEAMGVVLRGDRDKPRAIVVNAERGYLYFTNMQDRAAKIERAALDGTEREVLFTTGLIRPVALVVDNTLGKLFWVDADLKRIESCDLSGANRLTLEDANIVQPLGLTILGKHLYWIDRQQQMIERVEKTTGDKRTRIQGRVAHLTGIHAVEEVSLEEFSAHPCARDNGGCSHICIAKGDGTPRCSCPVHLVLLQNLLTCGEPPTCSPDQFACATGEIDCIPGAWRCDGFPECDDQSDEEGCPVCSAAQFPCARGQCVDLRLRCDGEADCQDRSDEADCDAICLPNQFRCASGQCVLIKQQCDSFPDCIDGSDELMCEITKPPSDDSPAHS
Assay: immunoprecipitation, anti-Flag M2 affinity gel (FIG. 2H)
Experimental: A […] dish of 293 cells was transfected with 10 ug of LRP5, LRP6, SOST or Wise, using Fugene 6 (Roche). pCS2+LRP5 contains the extracellular portion of the human sequence between EcoRI-Xbal. pCS2+SOST contain the whole reading frame and has been modified at the 3′ end to have a kozak sequence and Flag tag, Wise-Flag, and LRP6-IgG-FC are described in Itasaki et al. (2003). pCS2+ with an Ig-FC insert is the vector control. The supernatants were collected on day 1, day 2, and day 3. The supernatant was concentrated through an appropriate molecular weight Amicon ultra (Millipore) spin column. A protein concentration was taken on the concentrated supernatants, and 50 ug of each sample was used in each IP. Anti-Flag M2 affinity gel (Sigma) was used for the Wise and SOSTIPs.

binding result: no binding
B1: SOST-Flag (ligand, mouse, UniProt Q99P68 24-211, looked up)
chain: QGWQAFRNDATEVIPGLGEYPEPPPENNQTMNRAENGGRPPHHPYDAKDVSEYSCRELHYTRFLTDGPCRSAKPVTELVCSGQCGPARLLPNAIGRVKWWRPNGPDFRCIPDRYRAQRVQLLCPGGAAPRSRKVRLVASCKCKRLTRFHNQSELKDFGPETARPQKGRKPRPGARGAKANQAELENAY
notes: mature; This entry was not used because neither its species nor its tie to the assay construct is stated; also called pCS2+SOST; not shown: Flag tag at the 3' end of the reading frame
